Six molecules from US20130005646A1 (Novo Nordisk, published 2013) can be followed below.

Starred links: 1 amine or outer side, 2 acyl side, 3 side chain; linkers in the order of their positions; H or OH if unused. Positions of bridges follow the written chain, without caps; N, C: chain ends. *: point of attachment. C20 diacid = O=C(O)CCCCCCCCCCCCCCCCCCC(=O)*; γGlu = O=C(O)[C@H](CCC(=O)[*:2])N[*:1]

For assay [1], the target named is T1, human amylin 3(a) receptor (human calcitonin receptor + RAMP-3) (human, UniProt P30988 25-474; O60896 24-148).
T1 sequence (looked up) 1: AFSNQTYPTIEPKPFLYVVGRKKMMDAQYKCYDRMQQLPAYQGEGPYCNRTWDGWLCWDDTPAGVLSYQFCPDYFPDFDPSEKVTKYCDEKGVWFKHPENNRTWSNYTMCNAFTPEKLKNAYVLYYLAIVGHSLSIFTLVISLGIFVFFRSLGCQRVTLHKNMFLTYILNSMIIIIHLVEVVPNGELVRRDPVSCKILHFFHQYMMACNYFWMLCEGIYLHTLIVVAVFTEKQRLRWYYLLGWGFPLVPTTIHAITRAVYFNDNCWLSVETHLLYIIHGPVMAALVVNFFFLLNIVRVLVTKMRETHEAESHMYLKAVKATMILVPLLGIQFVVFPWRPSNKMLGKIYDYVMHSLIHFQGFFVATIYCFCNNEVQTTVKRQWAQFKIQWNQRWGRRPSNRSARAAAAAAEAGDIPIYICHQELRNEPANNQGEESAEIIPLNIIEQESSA
T1 sequence (looked up) 2: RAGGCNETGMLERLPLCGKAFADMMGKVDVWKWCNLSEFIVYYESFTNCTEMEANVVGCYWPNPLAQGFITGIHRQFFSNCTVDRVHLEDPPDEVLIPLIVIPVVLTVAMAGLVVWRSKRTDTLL
Put plainly: cell-based or functional assay.

Assay [2] addresses T2, human calcitonin (a) receptor (human, UniProt P30988 25-474).
T2 sequence (looked up): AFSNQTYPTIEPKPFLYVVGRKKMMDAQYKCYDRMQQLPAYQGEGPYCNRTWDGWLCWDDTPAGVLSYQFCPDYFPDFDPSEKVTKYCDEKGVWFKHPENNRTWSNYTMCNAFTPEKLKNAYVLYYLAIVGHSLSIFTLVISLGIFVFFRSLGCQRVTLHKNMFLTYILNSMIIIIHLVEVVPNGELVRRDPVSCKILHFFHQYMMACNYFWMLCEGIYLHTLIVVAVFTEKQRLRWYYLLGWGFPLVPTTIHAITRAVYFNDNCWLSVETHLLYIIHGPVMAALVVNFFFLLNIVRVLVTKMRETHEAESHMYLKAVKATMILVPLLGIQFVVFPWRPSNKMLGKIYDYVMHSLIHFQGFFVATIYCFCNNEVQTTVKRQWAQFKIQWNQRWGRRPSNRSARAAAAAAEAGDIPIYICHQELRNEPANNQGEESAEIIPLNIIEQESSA
Kind of assay: cell-based or functional assay.

B1: N-alpha-[(S)-4-Carboxy-4-(19-carboxynonadecanoylamino)butyryl]-[Ser1,Glu14,His17,His35]-pramlintide (peptide)
peptide: {C20 diacid-γGlu}-SCNTATCATQRLAEFLHHSSNNFGPILPPTNVGSHTY-NH2
modifications: disulfide 2-7
SMILES: CC[C@H](C)[C@H](NC(=O)[C@@H]1CCCN1C(=O)CNC(=O)[C@H](Cc1ccccc1)NC(=O)[C@H](CC(N)=O)NC(=O)[C@H](CC(N)=O)NC(=O)[C@H](CO)NC(=O)[C@H](CO)NC(=O)[C@H](Cc1c[nH]cn1)NC(=O)[C@H](Cc1c[nH]cn1)NC(=O)[C@H](CC(C)C)NC(=O)[C@H](Cc1ccccc1)NC(=O)[C@H](CCC(=O)O)NC(=O)[C@H](C)NC(=O)[C@H](CC(C)C)NC(=O)[C@H](CCCNC(=N)N)NC(=O)[C@H](CCC(N)=O)NC(=O)[C@@H](NC(=O)[C@H](C)NC(=O)[C@@H]1CSSC[C@H](NC(=O)[C@H](CO)NC(=O)CC[C@H](NC(=O)CCCCCCCCCCCCCCCCCCC(=O)O)C(=O)O)C(=O)N[C@@H](CC(N)=O)C(=O)N[C@@H]([C@@H](C)O)C(=O)N[C@@H](C)C(=O)N[C@@H]([C@@H](C)O)C(=O)N1)[C@@H](C)O)C(=O)N[C@@H](CC(C)C)C(=O)N1CCC[C@H]1C(=O)N1CCC[C@H]1C(=O)N[C@H](C(=O)N[C@@H](CC(N)=O)C(=O)N[C@H](C(=O)NCC(=O)N[C@@H](CO)C(=O)N[C@@H](Cc1c[nH]cn1)C(=O)N[C@H](C(=O)N[C@@H](Cc1ccc(O)cc1)C(N)=O)[C@@H](C)O)C(C)C)[C@@H](C)O
On to B1, for which, in assay [1], the “Amylin receptor human EC50” value amounted to 0.225 nM. In addition, the “CTa receptor human EC50” value in assay [2] was determined as 0.171 nM.

B2: N-alpha-[(S)-4-Carboxy-4-(19-carboxynonadecanoylamino)butyryl]-Gly-[Arg1,Pro37]-pramlintide (peptide)
peptide: {C20 diacid-γGlu}-GRCNTATCATQRLANFLVHSSNNFGPILPPTNVGSNTP-NH2
modifications: disulfide 3-8
SMILES: CC[C@H](C)[C@H](NC(=O)[C@@H]1CCCN1C(=O)CNC(=O)[C@H](Cc1ccccc1)NC(=O)[C@H](CC(N)=O)NC(=O)[C@H](CC(N)=O)NC(=O)[C@H](CO)NC(=O)[C@H](CO)NC(=O)[C@H](Cc1c[nH]cn1)NC(=O)[C@@H](NC(=O)[C@H](CC(C)C)NC(=O)[C@H](Cc1ccccc1)NC(=O)[C@H](CC(N)=O)NC(=O)[C@H](C)NC(=O)[C@H](CC(C)C)NC(=O)[C@H](CCCNC(=N)N)NC(=O)[C@H](CCC(N)=O)NC(=O)[C@@H](NC(=O)[C@H](C)NC(=O)[C@@H]1CSSC[C@H](NC(=O)[C@H](CCCNC(=N)N)NC(=O)CNC(=O)CC[C@H](NC(=O)CCCCCCCCCCCCCCCCCCC(=O)O)C(=O)O)C(=O)N[C@@H](CC(N)=O)C(=O)N[C@@H]([C@@H](C)O)C(=O)N[C@@H](C)C(=O)N[C@@H]([C@@H](C)O)C(=O)N1)[C@@H](C)O)C(C)C)C(=O)N[C@@H](CC(C)C)C(=O)N1CCC[C@H]1C(=O)N1CCC[C@H]1C(=O)N[C@H](C(=O)N[C@@H](CC(N)=O)C(=O)N[C@H](C(=O)NCC(=O)N[C@@H](CO)C(=O)N[C@@H](CC(N)=O)C(=O)N[C@H](C(=O)N1CCC[C@H]1C(N)=O)[C@@H](C)O)C(C)C)[C@@H](C)O
With B2, in assay [1], the “Amylin receptor human EC50” value was 0.0525 nM. The “CTa receptor human EC50” value in assay [2] is 0.075 nM.

B3: N-alpha-[(S)-4-Carboxy-4-(19-carboxynonadecanoylamino)butyryl]-Gly-[Arg1,Glu14,Pro37]-pramlintide (peptide)
peptide: {C20 diacid-γGlu}-GRCNTATCATQRLAEFLVHSSNNFGPILPPTNVGSNTP-NH2
modifications: disulfide 3-8
SMILES: CC[C@H](C)[C@H](NC(=O)[C@@H]1CCCN1C(=O)CNC(=O)[C@H](Cc1ccccc1)NC(=O)[C@H](CC(N)=O)NC(=O)[C@H](CC(N)=O)NC(=O)[C@H](CO)NC(=O)[C@H](CO)NC(=O)[C@H](Cc1c[nH]cn1)NC(=O)[C@@H](NC(=O)[C@H](CC(C)C)NC(=O)[C@H](Cc1ccccc1)NC(=O)[C@H](CCC(=O)O)NC(=O)[C@H](C)NC(=O)[C@H](CC(C)C)NC(=O)[C@H](CCCNC(=N)N)NC(=O)[C@H](CCC(N)=O)NC(=O)[C@@H](NC(=O)[C@H](C)NC(=O)[C@@H]1CSSC[C@H](NC(=O)[C@H](CCCNC(=N)N)NC(=O)CNC(=O)CC[C@H](NC(=O)CCCCCCCCCCCCCCCCCCC(=O)O)C(=O)O)C(=O)N[C@@H](CC(N)=O)C(=O)N[C@@H]([C@@H](C)O)C(=O)N[C@@H](C)C(=O)N[C@@H]([C@@H](C)O)C(=O)N1)[C@@H](C)O)C(C)C)C(=O)N[C@@H](CC(C)C)C(=O)N1CCC[C@H]1C(=O)N1CCC[C@H]1C(=O)N[C@H](C(=O)N[C@@H](CC(N)=O)C(=O)N[C@H](C(=O)NCC(=O)N[C@@H](CO)C(=O)N[C@@H](CC(N)=O)C(=O)N[C@H](C(=O)N1CCC[C@H]1C(N)=O)[C@@H](C)O)C(C)C)[C@@H](C)O
Consider B3, for which the “Amylin receptor human EC50” value in assay [1] came out at 0.0495 nM. Also, the “CTa receptor human EC50” value in assay [2] is 0.0505 nM.

B4: N-alpha-[(S)-4-Carboxy-4-(19-carboxynonadecanoylamino)butyryl]-[Ser1,Glu14,His17,Pro37]-pramlintide (peptide)
peptide: {C20 diacid-γGlu}-SCNTATCATQRLAEFLHHSSNNFGPILPPTNVGSNTP-NH2
modifications: disulfide 2-7
SMILES: CC[C@H](C)[C@H](NC(=O)[C@@H]1CCCN1C(=O)CNC(=O)[C@H](Cc1ccccc1)NC(=O)[C@H](CC(N)=O)NC(=O)[C@H](CC(N)=O)NC(=O)[C@H](CO)NC(=O)[C@H](CO)NC(=O)[C@H](Cc1c[nH]cn1)NC(=O)[C@H](Cc1c[nH]cn1)NC(=O)[C@H](CC(C)C)NC(=O)[C@H](Cc1ccccc1)NC(=O)[C@H](CCC(=O)O)NC(=O)[C@H](C)NC(=O)[C@H](CC(C)C)NC(=O)[C@H](CCCNC(=N)N)NC(=O)[C@H](CCC(N)=O)NC(=O)[C@@H](NC(=O)[C@H](C)NC(=O)[C@@H]1CSSC[C@H](NC(=O)[C@H](CO)NC(=O)CC[C@H](NC(=O)CCCCCCCCCCCCCCCCCCC(=O)O)C(=O)O)C(=O)N[C@@H](CC(N)=O)C(=O)N[C@@H]([C@@H](C)O)C(=O)N[C@@H](C)C(=O)N[C@@H]([C@@H](C)O)C(=O)N1)[C@@H](C)O)C(=O)N[C@@H](CC(C)C)C(=O)N1CCC[C@H]1C(=O)N1CCC[C@H]1C(=O)N[C@H](C(=O)N[C@@H](CC(N)=O)C(=O)N[C@H](C(=O)NCC(=O)N[C@@H](CO)C(=O)N[C@@H](CC(N)=O)C(=O)N[C@H](C(=O)N1CCC[C@H]1C(N)=O)[C@@H](C)O)C(C)C)[C@@H](C)O
As for B4, in assay [1], the “Amylin receptor human EC50” value came out at 0.0625 nM. The “CTa receptor human EC50” value in assay [2] was 0.0705 nM.

B5: N-alpha-[(S)-4-Carboxy-4-(19-carboxynonadecanoylamino)butyryl]-[Gly1,Glu14,His17,His35]-pramlintide (peptide)
peptide: {C20 diacid-γGlu}-GCNTATCATQRLAEFLHHSSNNFGPILPPTNVGSHTY-NH2
modifications: disulfide 2-7
SMILES: CC[C@H](C)[C@H](NC(=O)[C@@H]1CCCN1C(=O)CNC(=O)[C@H](Cc1ccccc1)NC(=O)[C@H](CC(N)=O)NC(=O)[C@H](CC(N)=O)NC(=O)[C@H](CO)NC(=O)[C@H](CO)NC(=O)[C@H](Cc1c[nH]cn1)NC(=O)[C@H](Cc1c[nH]cn1)NC(=O)[C@H](CC(C)C)NC(=O)[C@H](Cc1ccccc1)NC(=O)[C@H](CCC(=O)O)NC(=O)[C@H](C)NC(=O)[C@H](CC(C)C)NC(=O)[C@H](CCCNC(=N)N)NC(=O)[C@H](CCC(N)=O)NC(=O)[C@@H](NC(=O)[C@H](C)NC(=O)[C@@H]1CSSC[C@H](NC(=O)CNC(=O)CC[C@H](NC(=O)CCCCCCCCCCCCCCCCCCC(=O)O)C(=O)O)C(=O)N[C@@H](CC(N)=O)C(=O)N[C@@H]([C@@H](C)O)C(=O)N[C@@H](C)C(=O)N[C@@H]([C@@H](C)O)C(=O)N1)[C@@H](C)O)C(=O)N[C@@H](CC(C)C)C(=O)N1CCC[C@H]1C(=O)N1CCC[C@H]1C(=O)N[C@H](C(=O)N[C@@H](CC(N)=O)C(=O)N[C@H](C(=O)NCC(=O)N[C@@H](CO)C(=O)N[C@@H](Cc1c[nH]cn1)C(=O)N[C@H](C(=O)N[C@@H](Cc1ccc(O)cc1)C(N)=O)[C@@H](C)O)C(C)C)[C@@H](C)O
With B5, the “Amylin receptor human EC50” value in assay [1] turned out to be 0.208 nM. Moreover, the “CTa receptor human EC50” value in assay [2] is 0.161 nM.

B6: N-alpha-[(S)-4-Carboxy-4-(19-carboxynonadecanoylamino)butyryl]-[des1,Glu14,His17,Pro37]-pramlintide (peptide)
peptide: {C20 diacid-γGlu}-CNTATCATQRLAEFLHHSSNNFGPILPPTNVGSNTP-NH2
modifications: disulfide 1-6
SMILES: CC[C@H](C)[C@H](NC(=O)[C@@H]1CCCN1C(=O)CNC(=O)[C@H](Cc1ccccc1)NC(=O)[C@H](CC(N)=O)NC(=O)[C@H](CC(N)=O)NC(=O)[C@H](CO)NC(=O)[C@H](CO)NC(=O)[C@H](Cc1c[nH]cn1)NC(=O)[C@H](Cc1c[nH]cn1)NC(=O)[C@H](CC(C)C)NC(=O)[C@H](Cc1ccccc1)NC(=O)[C@H](CCC(=O)O)NC(=O)[C@H](C)NC(=O)[C@H](CC(C)C)NC(=O)[C@H](CCCNC(=N)N)NC(=O)[C@H](CCC(N)=O)NC(=O)[C@@H](NC(=O)[C@H](C)NC(=O)[C@@H]1CSSC[C@H](NC(=O)CC[C@H](NC(=O)CCCCCCCCCCCCCCCCCCC(=O)O)C(=O)O)C(=O)N[C@@H](CC(N)=O)C(=O)N[C@@H]([C@@H](C)O)C(=O)N[C@@H](C)C(=O)N[C@@H]([C@@H](C)O)C(=O)N1)[C@@H](C)O)C(=O)N[C@@H](CC(C)C)C(=O)N1CCC[C@H]1C(=O)N1CCC[C@H]1C(=O)N[C@H](C(=O)N[C@@H](CC(N)=O)C(=O)N[C@H](C(=O)NCC(=O)N[C@@H](CO)C(=O)N[C@@H](CC(N)=O)C(=O)N[C@H](C(=O)N1CCC[C@H]1C(N)=O)[C@@H](C)O)C(C)C)[C@@H](C)O
Turning to B6, the “Amylin receptor human EC50” value in assay [1] turned out to be 0.0795 nM. In addition, the “CTa receptor human EC50” value in assay [2] worked out at 0.106 nM.
